Reference: patent publication US20100291106A1 (Novartis, published 2010)
Substitutions are numbered along the chain they refer to. Read-outs that look alike come from different tables or passages of the source.

Columns and labels:
human C3d [1] = target: T1, human C3d (human, UniProt P01024 1002-1303); experiment: cross reactivity, ELISA on C3d, anti-His detection
T1 construct: domain: C3d
Method: In order to determine whether the anti-C3b antibodies described herein can bind to complement pathway components iC3b and C3c, the following steps were performed: Directly add iC3b(complement Technologies A115), C3d (complement Technologies A117), or C3c (complement Technologies A116), at 2 μg/ml in Carbonate Buffer onto Coat Maxisorp plate Nunc (442404) at 100 μl per well. Seal plates and incubate at 4° C. overnight. Aspirate plates and wash 3 times with PBS/0.5% Tween 20. Block plates with Diluent (PBS, 4% BSA Fraction V (Fisher ICN16006980), 0.1% Tween 20 (Sigma P1379), 0.1% Triton X-100 (Sigma P234729)) and incubate for 2 h at room temperature or overnight at 4° C. Then wash plates once with PBS/0.5% Tween 20. Dilute Fabs at 100 nM and subsequent dilutions (or higher concentration if needed) in diluent and plate 100 μl per well. Incubate at room temperature for 1 h. Wash plates 3 times with PBS/0.5% Tween 20. Add 100 μl/well of anti-Histidine-HRP monoclonal detection antibody at 1:400 in diluent and incubate at room temperature for 1 h. Then wash 4 times with PBS/0.5% Tween 20. Add 100 μl of TMB substrate (Pierce 34028) and incubate at room temperature for up to 5 min. Add 50 μl of Stop solution (2N Sulfuric Acid) to each well and read plate at 450 nm and correct for plastic reading at 570 nm.

[2] = target: T2, human complement C3b protein (human, UniProt P01024 23-667; P01024 749-1663); experiment: SPR (Biacore), C3b captured by anti-C3d antibody, Fab as analyte
T2 construct: Purified plasma C3b (Complement Technology, Quidel); Depending on the assay it was captured by an anti-C3d antibody, coated, biotinylated or coupled to beads; also called human C3b; huC3b

[3] = target: T3, cynomolgus complement C3b protein (cynomolgus monkey (Macaca fascicularis)); experiment: as above
T3 construct: also called cyno C3b; cynoC3b

[4] = target: T2, human complement C3b protein; experiment: solution equilibrium titration (SET), ECL detection, Fab
[5] = target: T3, cynomolgus complement C3b protein; experiment: as above
human C5 [6] = target: T4, human C5 (human, UniProt P01031 19-673; P01031 678-1676); experiment: cross reactivity, capture ELISA with anti-C5 capture antibody, anti-His detection
T4 construct: Captured by an anti-C5 antibody in the ELISA

[7] = target: T2, human complement C3b protein; experiment: cell-based or functional assay
[8] = target: T3, cynomolgus complement C3b protein; experiment: cell-based or functional assay
human C5 [9] = target: T4, human C5; experiment: Direct ELISA at 2 ug/ml C5, 200 nM Fab
[10] = target: T3, cynomolgus complement C3b protein; experiment: solution equilibrium titration (SET), ECL detection, Fab; remark: listed apart in the source
[11] = target: T3, cynomolgus complement C3b protein; experiment: SPR (Biacore), C3b captured by anti-C3d antibody, Fab as analyte; remark: listed apart in the source
[12] = target: T3, cynomolgus complement C3b protein; experiment: cell-based or functional assay; remark: listed apart in the source
human C3d [13] = target: T1, human C3d; experiment: C3d binding ELISA, IgG titrated from about 0.006 to 100 nM
[14] = target: T2, human complement C3b protein; experiment: SPR (Biacore T100), C3b captured by anti-C3d antibody, IgG as analyte, 1:1 model
[15] = target: T3, cynomolgus complement C3b protein; experiment: as above
[16] = target: T2, human complement C3b protein; experiment: cell-based or functional assay; remark: listed apart in the source
[17] = target: T2, human complement C3b protein; experiment: ELISA, C3b or C3 captured by anti-C3d antibody
Method: The C3b antibodies were examined to determine whether they were selective for binding to C3b relative to the C3b precursor C3. Briefly, binding selectivity for C3b was determined by performing the following steps. Coat Maxisorp plate Nunc (442404) with anti-C3d rabbit monoclonal (abcam 17453) at 2 μg/ml in Carbonate Buffer at 100 μl/well. Seal plates and incubate at 4° C. overnight. Aspirate plates and wash 3 times with PBS/0.5% Tween 20. Block plates with Diluent (PBS, 4% BSA Fraction V (Fisher ICN16006980), 0.1% Tween 20 (Sigma P1379), 0.1% Triton X-100 (Sigma P234729)) and incubate for 2 h at room temperature or overnight at 4° C. Then wash plates once with PBS/0.5% Tween 20. Dilute purified C3b (complement technologies A114 lot 21) and C3 (complement technologies A113c) at 1 μg/ml in diluent and plate 100 μl per well. Incubate for 1 h at room temperature. Then wash 3 times with PBS/0.5% Tween 20.
Dilute Fabs at 100 nM and subsequent dilutions (or higher concentration) in diluent and plate 100 μl per well. Incubate at room temperature for 1 h. Wash plates 3 times with PBS/0.5% Tween 20. Add 100 μl/well of anti-Histidine-HRP monoclonal detection antibody at 1:400 in diluent and incubate at room temperature for 1 h. Then wash 4 times with PBS/0.5% Tween 20. Add 100 μl of TMB substrate (Pierce 34028) and incubate at room temperature for up to 5 min. Add 50 μl of Stop solution (2N Sulfuric Acid) to each well and read plate at 450 nm and correct for plastic reading at 570 nm.

[18] = target: T2, human complement C3b protein; experiment: AlphaScreen bead proximity, C3b-Acceptor beads pre-incubated with antibody, then biotinylated fH and SA-Donor beads; blocked ligand: fH [C]
Method: In brief, purified C3b and fP were conjugated to unconjugated acceptor or donor beads (PerkinElmer) using AminoLink Reductant (Pierce) during a 48 h incubation at room temperature. Beads were quenched using Carboxymethoxylamine Hemihydrochloride (Aldrich), and purified by centrifugation at 13000 rpm and three washes with 0.1M TBST. Purified fB(D24G/N260D) and fH were biotinylated during a 30 min incubation with 20-fold molar excess of NHS-Chromogenic-biotin (Pierce) at room temperature, and purified using Zeba 0.5 ml desalting columns (Pierce).
For C3b-C3b and C3b-fP proximity, Fabs or IgGs respectively were pre-incubated with C3b-Acceptor beads (20 μg/ml) for 60 min at room temperature. C3b-Donor beads or fP-Donor beads (20 μg/ml) were then added, and the plate was incubated overnight at room temperature before reading. For C3b-fB and C3b-fH proximity, antibodies were pre-incubated with C3b-Acceptor beads (20 μg/ml) for 60 minutes at room temperature. Biotinylated fB(D24G/N260D) or fH were then added, and incubated for 60 minutes at room temperature. SA-Donor beads were then added (20 μg/ml) and the plate was incubated overnight at room temperature before reading. Plates were read on the BMG Pherastar (ex=680, em=520-620).

T1 sequence (P01024 1002-1303 limits assumed): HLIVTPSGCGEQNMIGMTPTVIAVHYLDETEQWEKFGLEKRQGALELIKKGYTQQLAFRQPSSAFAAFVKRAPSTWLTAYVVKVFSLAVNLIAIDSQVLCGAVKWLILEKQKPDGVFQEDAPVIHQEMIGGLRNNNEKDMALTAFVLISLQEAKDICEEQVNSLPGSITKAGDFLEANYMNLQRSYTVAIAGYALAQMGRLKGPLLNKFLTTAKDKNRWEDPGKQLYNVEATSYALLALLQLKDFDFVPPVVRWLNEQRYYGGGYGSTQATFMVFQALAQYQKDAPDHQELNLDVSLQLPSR
T2 sequence (P01024 23-667 P314L, chain 1 of 2): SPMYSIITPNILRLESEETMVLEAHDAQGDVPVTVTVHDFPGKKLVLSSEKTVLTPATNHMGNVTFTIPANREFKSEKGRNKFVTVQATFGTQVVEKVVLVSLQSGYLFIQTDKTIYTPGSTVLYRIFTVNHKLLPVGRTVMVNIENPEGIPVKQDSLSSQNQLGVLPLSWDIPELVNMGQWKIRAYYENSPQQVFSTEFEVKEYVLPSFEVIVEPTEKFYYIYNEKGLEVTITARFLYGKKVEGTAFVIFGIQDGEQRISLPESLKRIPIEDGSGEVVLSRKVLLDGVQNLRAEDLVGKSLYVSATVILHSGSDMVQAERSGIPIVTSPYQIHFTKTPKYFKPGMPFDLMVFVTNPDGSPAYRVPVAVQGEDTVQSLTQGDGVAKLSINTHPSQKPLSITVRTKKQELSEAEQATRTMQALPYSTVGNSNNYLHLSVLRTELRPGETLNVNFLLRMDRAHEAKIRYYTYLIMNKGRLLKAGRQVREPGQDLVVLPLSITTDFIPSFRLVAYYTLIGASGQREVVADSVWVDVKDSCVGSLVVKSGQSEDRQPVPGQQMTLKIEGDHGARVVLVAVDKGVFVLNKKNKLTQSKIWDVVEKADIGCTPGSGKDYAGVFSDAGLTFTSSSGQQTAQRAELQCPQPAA
T2 sequence (P01024 749-1663, chain 2 of 2): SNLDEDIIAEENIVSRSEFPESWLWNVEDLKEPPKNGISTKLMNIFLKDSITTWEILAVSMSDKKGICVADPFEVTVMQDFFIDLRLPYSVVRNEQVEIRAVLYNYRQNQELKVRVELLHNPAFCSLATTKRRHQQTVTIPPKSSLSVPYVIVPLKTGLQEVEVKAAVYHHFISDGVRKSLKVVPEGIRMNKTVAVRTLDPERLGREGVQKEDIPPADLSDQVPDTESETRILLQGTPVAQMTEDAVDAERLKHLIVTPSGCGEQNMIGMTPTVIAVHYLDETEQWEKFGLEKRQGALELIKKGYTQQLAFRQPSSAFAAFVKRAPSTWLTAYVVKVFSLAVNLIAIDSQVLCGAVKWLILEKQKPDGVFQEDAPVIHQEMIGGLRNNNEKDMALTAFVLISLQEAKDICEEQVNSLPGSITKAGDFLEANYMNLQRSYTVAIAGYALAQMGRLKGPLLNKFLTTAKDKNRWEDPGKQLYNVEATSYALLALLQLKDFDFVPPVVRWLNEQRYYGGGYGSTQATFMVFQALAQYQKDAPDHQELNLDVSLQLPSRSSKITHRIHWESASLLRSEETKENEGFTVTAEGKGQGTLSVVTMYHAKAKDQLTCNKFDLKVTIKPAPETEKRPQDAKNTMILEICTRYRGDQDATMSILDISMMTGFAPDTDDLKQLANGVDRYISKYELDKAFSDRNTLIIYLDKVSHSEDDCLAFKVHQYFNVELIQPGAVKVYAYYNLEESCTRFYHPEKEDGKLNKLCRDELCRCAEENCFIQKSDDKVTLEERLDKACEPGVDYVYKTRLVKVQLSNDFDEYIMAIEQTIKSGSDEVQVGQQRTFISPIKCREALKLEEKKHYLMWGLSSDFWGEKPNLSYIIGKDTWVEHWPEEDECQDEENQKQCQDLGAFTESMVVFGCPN
T4 sequence (P01031 19-673 limits assumed, chain 1 of 2): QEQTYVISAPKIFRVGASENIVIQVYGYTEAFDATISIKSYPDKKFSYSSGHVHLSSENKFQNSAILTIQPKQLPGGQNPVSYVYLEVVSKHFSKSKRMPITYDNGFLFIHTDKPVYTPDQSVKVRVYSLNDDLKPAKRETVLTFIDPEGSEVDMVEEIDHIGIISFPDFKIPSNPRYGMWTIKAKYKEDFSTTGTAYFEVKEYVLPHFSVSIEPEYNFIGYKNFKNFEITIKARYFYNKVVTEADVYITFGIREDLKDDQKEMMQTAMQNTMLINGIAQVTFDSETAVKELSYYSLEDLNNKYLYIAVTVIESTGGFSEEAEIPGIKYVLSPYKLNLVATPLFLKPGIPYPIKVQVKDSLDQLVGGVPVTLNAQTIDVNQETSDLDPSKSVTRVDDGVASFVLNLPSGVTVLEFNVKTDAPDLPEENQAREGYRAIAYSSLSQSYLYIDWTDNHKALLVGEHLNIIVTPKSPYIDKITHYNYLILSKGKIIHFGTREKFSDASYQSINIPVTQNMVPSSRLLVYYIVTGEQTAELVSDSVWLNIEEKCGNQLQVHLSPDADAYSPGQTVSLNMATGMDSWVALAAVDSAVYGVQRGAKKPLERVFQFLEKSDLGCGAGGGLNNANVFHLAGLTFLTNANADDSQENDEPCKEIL
T4 sequence (P01031 678-1676 limits assumed, chain 2 of 2): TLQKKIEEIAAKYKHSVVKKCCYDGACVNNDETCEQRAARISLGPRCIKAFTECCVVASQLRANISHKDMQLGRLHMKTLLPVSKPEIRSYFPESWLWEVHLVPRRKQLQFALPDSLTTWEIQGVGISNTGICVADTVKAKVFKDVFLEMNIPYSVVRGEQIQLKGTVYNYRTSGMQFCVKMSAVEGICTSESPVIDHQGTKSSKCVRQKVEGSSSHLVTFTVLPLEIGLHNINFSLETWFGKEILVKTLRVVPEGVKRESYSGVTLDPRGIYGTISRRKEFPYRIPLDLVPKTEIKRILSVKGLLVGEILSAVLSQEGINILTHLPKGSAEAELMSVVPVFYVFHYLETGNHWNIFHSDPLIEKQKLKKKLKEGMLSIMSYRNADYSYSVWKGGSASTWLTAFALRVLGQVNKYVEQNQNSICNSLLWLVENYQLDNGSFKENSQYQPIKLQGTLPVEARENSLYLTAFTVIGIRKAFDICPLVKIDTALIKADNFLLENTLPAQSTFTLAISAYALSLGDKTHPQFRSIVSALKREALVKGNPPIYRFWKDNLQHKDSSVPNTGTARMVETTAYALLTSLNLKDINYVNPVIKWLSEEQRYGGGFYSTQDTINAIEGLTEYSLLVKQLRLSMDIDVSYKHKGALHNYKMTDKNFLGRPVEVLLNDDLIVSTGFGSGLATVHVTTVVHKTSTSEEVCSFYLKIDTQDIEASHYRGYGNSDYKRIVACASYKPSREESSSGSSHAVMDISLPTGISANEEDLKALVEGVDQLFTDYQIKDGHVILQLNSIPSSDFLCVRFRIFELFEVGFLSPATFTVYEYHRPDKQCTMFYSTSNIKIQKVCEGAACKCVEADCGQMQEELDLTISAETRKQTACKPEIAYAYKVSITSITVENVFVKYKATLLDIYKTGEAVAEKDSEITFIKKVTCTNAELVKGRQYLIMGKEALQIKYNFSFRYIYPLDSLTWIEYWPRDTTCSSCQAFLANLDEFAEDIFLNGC

B1: MOR09136 Fab (Fab, V domains shown)
VH: QVQLVQSGAEVKKPGSSVKVSCKASGGTFSSYTFSWVRQAPGQGLEWMGNILPIFGDANYAQKFQGRVTITADESTSTAYMELSSLRSEDTAVYYCARNKGAFYYMSTYPSLDVWGQGTLVTVSS
VL: DIQMTQSPSSLSASVGDRVTITCRASQNINYYLNWYQQKPGKAPKLLIYDAFSLQSGVPSRFSGSGSGTDFTLTISSLQPEDFATYYCQQSWSVPPFTFGQGTKVEIKR
notes: also called Fab 9136
binding result (human C3d [1]): no binding | Kd [2]: 0.075 nM | Kd [3]: 0.005 nM | Kd [4]: 0.096 nM | Kd [5]: 0.016 nM | binding result (human C5 [6]): no binding | C3b Dep (nM), human serum, IC50 [7]: 8 nM | HA (nM), 10% human serum, IC50 [7]: 32 nM | MAC Dep (nM), human serum, IC50 [7]: 2 nM | C3b Dep (nM), cyno serum, IC50 [8]: 3 nM | HA (nM), 10% cyno serum, IC50 [8]: 52 nM | MAC Dep (nM), cyno serum, IC50 [8]: 3 nM

B2: MOR09141 Fab (Fab, V domains shown)
VH: B1 VH
VL: B1 VL with W92I, S93A
notes: also called Fab 9141
binding result (human C3d [1]): no binding | Kd [2]: 0.039 nM | Kd [3]: 0.004 nM | Kd [4]: 0.1 nM | Kd [5]: 0.02 nM | binding result (human C5 [6]): no binding | C3b Dep (nM), human serum, IC50 [7]: 7 nM | HA (nM), 10% human serum, IC50 [7]: 27 nM | MAC Dep (nM), human serum, IC50 [7]: 1 nM | C3b Dep (nM), cyno serum, IC50 [8]: 9 nM | HA (nM), 10% cyno serum, IC50 [8]: 43 nM | MAC Dep (nM), cyno serum, IC50 [8]: 2 nM

B3: MOR09373 Fab (Fab, V domains shown)
VH: QVQLVQSGAEVKKPGASVKVSCKASGYTFTSYSMHWVRQAPGQGLEWMGLINPYNGNTHYAQKFQGRVTMTRDTSISTAYMELSSLRSEDTAVYYCARMLRFDVWGQGTLVTVSS
VL: DIALTQPASVSGSPGQSITISCTGTSSDGGGYNYVSWYQQHPGKAPKLMIYGVSNRPSGVSNRFSGSKSGNTASLTISGLQAEDEADYYCQTYTRYSDSPVFGGGTKLTVLG
notes: also called Fab 9373
Kd [3]: 0.009 nM | Kd [5]: 0.078 nM | binding result (human C5 [6]): no binding | C3b Dep (nM), cyno serum, IC50 [8]: 5 nM | HA (nM), 10% cyno serum, IC50 [8]: 62 nM | MAC Dep (nM), cyno serum, IC50 [8]: 6 nM

B4: 9609 (Fab, V domains shown)
VH: B1 VH with Q1E
VL: DIQMTQSPSSLSASVGDRVTITCRASQNINYYLNWYQQKPGKAPKLLIYDAFSLQSGVPSRFSGSGSGTDFTLTISSLQPEDFATYYCQQSWSVPPFTFGQGTKVEIK
notes: the IgG is m13; also called 9609 Fab format; MOR9609 Fab
binding result (human C5 [9]): no binding (tested: 200 nM)

B5: MOR9674 Fab format (Fab, V domains shown)
VH: B3 VH with Q1E
VL: B3 VL with D1E, I2S
Kd [10]: 0.09 nM | Kd [11]: 0.119 nM | C3b Dep (nM), cyno serum, IC50 [12]: 70 nM | HA (nM), 10% cyno serum, IC50 [12]: 78 nM | MAC Dep (nM), cyno serum, IC50 [12]: 17 nM | binding result (human C5 [9]): no binding (tested: 200 nM)

B6: MOR09609 IgG (antibody, V domains shown)
VH: B1 VH with Q1E
VL: B1 VL
notes: Germlined human IgG1 with leucines 234 and 235 changed to alanines, kappa; also called antibody 9609
binding result (human C3d [13]): no binding (tested: 100 nM) | Kd [14]: 0.0022 nM | koff [14]: 3.16e-06 s⁻¹ | kon [14]: 1.44e+06 M⁻¹ s⁻¹ | Kd [15]: 0.0228 nM | koff [15]: 4.6e-05 s⁻¹ | kon [15]: 2.02e+06 M⁻¹ s⁻¹ | MAC deposition on zymosan, IC50 [16]: ≤ 5 nM | hemolysis of rabbit red blood cells, 10% human or cynomolgus serum, IC50 [16]: ≤ 50 nM | inhibition of C3a and C5a generation during hemolysis, IC50 [16]: ≤ 50 nM | fold binding selectivity for C3b over C3 [17]: > 1000 fold | IC50 (read off the curve) [18]: ~0.1 nM

B7: MOR09610 IgG (antibody, V domains shown)
VH: B1 VH with Q1E
VL: B1 VL with W92I, S93A
notes: Germlined human IgG1 with leucines 234 and 235 changed to alanines, kappa; also called antibody 9610
binding result (human C3d [13]): no binding (tested: 100 nM) | Kd [14]: 0.0049 nM | koff [14]: 4.02e-06 s⁻¹ | kon [14]: 820000 M⁻¹ s⁻¹ | Kd [15]: 0.0335 nM | koff [15]: 6.41e-05 s⁻¹ | kon [15]: 1.91e+06 M⁻¹ s⁻¹ | MAC deposition on zymosan, IC50 [16]: ≤ 5 nM | hemolysis of rabbit red blood cells, 10% human or cynomolgus serum, IC50 [16]: ≤ 50 nM | inhibition of C3a and C5a generation during hemolysis, IC50 [16]: ≤ 50 nM | fold binding selectivity for C3b over C3 [17]: > 1000 fold | IC50 (read off the curve) [18]: ~0.2 nM

B8: MOR09674 IgG (antibody, V domains shown)
VH: B3 VH with Q1E
VL: B3 VL with D1E, I2S
notes: Germlined human IgG1 with leucines 234 and 235 changed to alanines, lambda; also called antibody 9674
Kd [15]: 0.00713 nM | koff [15]: 5.95e-05 s⁻¹ | kon [15]: 8.34e+06 M⁻¹ s⁻¹
